Assay results as given in PMC4729957, “The Atg1–kinase complex tethers Atg9-vesicles to initiate autophagy” (Nature Communications, 2016).
Blank lines part the entries; values can stand above or below the binder they belong to.

B2: Atg13 (natural protein, S. cerevisiae, UniProt Q06628 1-738, looked up)
chain: MVAEEDIEKQVLQLIDSFFLKTTLLICSTESSRYQSSTENIFLFDDTWFEDHSELVSELPEIISKWSHYDGRKELPPLVVETYLDLRQLNSSHLVRLKDHEGHLWNVCKGTKKQEIVMERWLIELDNSSPTFKSYSEDETDVNELSKQLVLLFRYLLTLIQLLPTTELYQLLIKSYNGPQNEGSSNPITSTGPLVSIRTCVLDGSKPILSKGRIGLSKPIINTYSNALNESNLPAHLDQKKITPVWTKFGLLRVSVSYRRDWKFEINNTNDELFSARHASVSHNSQGPQNQPEQEGQSDQDIGKRQPQFQQQQQPQQQQQQQQQQQRQHQVQTQQQRQIPDRRSLSLSPCTRANSFEPQSWQKKVYPISRPVQPFKVGSIGSQSASRNPSNSSFFNQPPVHRPSMSSNYGPQMNIEGTSVGSTSKYSSSFGNIRRHSSVKTTENAEKVSKAVKSPLQPQESQEDLMDFVKLLEEKPDLTIKKTSGNNPPNINISDSLIRYQNLKPSNDLLSEDLSVSLSMDPNHTYHRGRSDSHSPLPSISPSMHYGSLNSRMSQGANASHLIARGGGNSSTSALNSRRNSLDKSSNKQGMSGLPPIFGGESTSYHHDNKIQKYNQLGVEEDDDDENDRLLNQMGNSATKFKSSISPRSIDSISSSFIKSRIPIRQPYHYSQPTTAPFQAQAKFHKPANKLIDNGNRSNSNNNNHNGNDAVGVMHNDEDDQDDDLVFFMSDMNLSKEG
notes: Atg13, S. cerevisiae BY4741, open reading frame from genomic DNA; source: E. coli Rosetta, purified (Ni-NTA, anion exchange)

What was measured:
Atg1 [1] = target: T1, Atg1 (S. cerevisiae, UniProt P53104 1-897, phosphothreonine at 226 (T226)); assay: SEC; ATP added to fully assembled Atg1^PC (Atg13, Atg29 and Atg1 become phosphorylated by Atg1); SEC and SDS–PAGE of the fractions; details: both partners purified
T1 construct: Atg1, S. cerevisiae BY4741, open reading frame from genomic DNA; also called full-length Atg1; Atg1–kinase; source: High Five (BTI-TN-5B1–4) insect cells, purified (Ni-NTA, SEC)
T1 sequence (looked up): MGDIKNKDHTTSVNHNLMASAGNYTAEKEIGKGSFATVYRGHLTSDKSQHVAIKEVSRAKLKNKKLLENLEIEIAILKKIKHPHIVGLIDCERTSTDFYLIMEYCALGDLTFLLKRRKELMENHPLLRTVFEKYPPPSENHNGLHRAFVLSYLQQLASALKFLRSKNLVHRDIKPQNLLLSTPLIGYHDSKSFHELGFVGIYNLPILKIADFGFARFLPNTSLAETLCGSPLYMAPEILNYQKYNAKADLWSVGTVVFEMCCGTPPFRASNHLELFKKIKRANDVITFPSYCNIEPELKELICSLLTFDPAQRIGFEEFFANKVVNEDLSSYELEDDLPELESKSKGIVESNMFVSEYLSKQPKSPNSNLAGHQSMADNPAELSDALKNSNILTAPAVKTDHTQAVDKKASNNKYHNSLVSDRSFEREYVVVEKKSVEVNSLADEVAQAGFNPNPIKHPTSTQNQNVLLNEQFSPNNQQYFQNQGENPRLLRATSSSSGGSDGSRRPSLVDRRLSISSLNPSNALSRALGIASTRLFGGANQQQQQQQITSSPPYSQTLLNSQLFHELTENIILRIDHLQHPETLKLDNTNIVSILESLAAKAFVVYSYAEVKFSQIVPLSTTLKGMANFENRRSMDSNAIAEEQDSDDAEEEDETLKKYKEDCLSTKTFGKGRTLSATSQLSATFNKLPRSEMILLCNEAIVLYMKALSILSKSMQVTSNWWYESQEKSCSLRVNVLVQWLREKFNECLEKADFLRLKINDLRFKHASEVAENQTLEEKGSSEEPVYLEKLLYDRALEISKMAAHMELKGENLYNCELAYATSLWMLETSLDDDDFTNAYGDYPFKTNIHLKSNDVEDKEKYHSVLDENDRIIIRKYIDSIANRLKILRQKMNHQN

Atg1 [2] = target: T1, Atg1; assay: SEC; complexes assembled from purified subunits or subcomplexes, 30 min at room temperature, then gel filtration on Superose 6; details: both partners purified
[3] = target: the molecule itself; assay: dynamic light scattering; Stokes radii (RH) of the purified proteins and complexes in solution
Atg13 = target: B2; assay: SEC; complexes assembled from purified subunits or subcomplexes, 30 min at room temperature, then gel filtration on Superose 6; details: both partners purified
[4] = target: T2, Atg9^core (Atg9^281–779), reconstituted in proteoliposomes (S. cerevisiae, UniProt Q12142 281-779); assay: co-floatation with proteoliposomes; Atg9 variant held in proteoliposomes (synthetic lipids without PI), partner in solution at 1:1, Nycodenz step gradient, 650,000g 2 h at 4 °C, 25 mM HEPES pH 7.0, 100 mM NaCl; top fraction read by SDS–PAGE or α-myc immunoblot; details: both partners purified
T2 construct: Atg9, S. cerevisiae BY4741, conserved core region, residues 281–779; modified pET28a(+) vector; about 50% of the protein in the proteoliposomes has its cytoplasmic domains outside; liposomes of cholesterol, POPE, POPC, POPS, without PI; also called Atg9–PLs; Atg9-PL; source: E. coli Rosetta, solubilised in LDAO, purified (Ni-NTA, SEC), reconstituted in liposomes; not shown: His tag, C-terminal, …
T2 sequence (looked up): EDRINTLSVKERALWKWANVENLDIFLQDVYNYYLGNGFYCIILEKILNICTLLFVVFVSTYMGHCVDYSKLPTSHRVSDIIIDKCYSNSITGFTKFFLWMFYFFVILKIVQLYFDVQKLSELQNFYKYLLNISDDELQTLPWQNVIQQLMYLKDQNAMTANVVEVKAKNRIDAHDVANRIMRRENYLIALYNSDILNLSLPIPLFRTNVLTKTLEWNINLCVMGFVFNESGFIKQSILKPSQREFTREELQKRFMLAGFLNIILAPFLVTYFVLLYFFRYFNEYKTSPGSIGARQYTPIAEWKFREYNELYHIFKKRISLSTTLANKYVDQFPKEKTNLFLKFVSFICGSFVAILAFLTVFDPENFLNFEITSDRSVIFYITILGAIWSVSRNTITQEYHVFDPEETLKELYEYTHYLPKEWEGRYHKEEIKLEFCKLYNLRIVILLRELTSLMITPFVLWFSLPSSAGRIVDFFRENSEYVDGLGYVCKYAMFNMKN

binding result (Atg1 [1]): binds
B1: Atg13(P), Atg13 phosphorylated by Atg1 in vitro (natural protein, S. cerevisiae, UniProt Q06628 1-738, looked up)
chain: MVAEEDIEKQVLQLIDSFFLKTTLLICSTESSRYQSSTENIFLFDDTWFEDHSELVSELPEIISKWSHYDGRKELPPLVVETYLDLRQLNSSHLVRLKDHEGHLWNVCKGTKKQEIVMERWLIELDNSSPTFKSYSEDETDVNELSKQLVLLFRYLLTLIQLLPTTELYQLLIKSYNGPQNEGSSNPITSTGPLVSIRTCVLDGSKPILSKGRIGLSKPIINTYSNALNESNLPAHLDQKKITPVWTKFGLLRVSVSYRRDWKFEINNTNDELFSARHASVSHNSQGPQNQPEQEGQSDQDIGKRQPQFQQQQQPQQQQQQQQQQQRQHQVQTQQQRQIPDRRSLSLSPCTRANSFEPQSWQKKVYPISRPVQPFKVGSIGSQSASRNPSNSSFFNQPPVHRPSMSSNYGPQMNIEGTSVGSTSKYSSSFGNIRRHSSVKTTENAEKVSKAVKSPLQPQESQEDLMDFVKLLEEKPDLTIKKTSGNNPPNINISDSLIRYQNLKPSNDLLSEDLSVSLSMDPNHTYHRGRSDSHSPLPSISPSMHYGSLNSRMSQGANASHLIARGGGNSSTSALNSRRNSLDKSSNKQGMSGLPPIFGGESTSYHHDNKIQKYNQLGVEEDDDDENDRLLNQMGNSATKFKSSISPRSIDSISSSFIKSRIPIRQPYHYSQPTTAPFQAQAKFHKPANKLIDNGNRSNSNNNNHNGNDAVGVMHNDEDDQDDDLVFFMSDMNLSKEG
modifications: phosphoserine at 428, 429 and 496 and at several other positions (Supplementary Table 1)
notes: Atg13, S. cerevisiae BY4741; also called phosphorylated Atg13; source: E. coli Rosetta, purified; phosphorylated by adding ATP to fully assembled Atg1^PC

Binder: B2
binding result (Atg1 [2]): binds

binding result (Atg13): binds | binding result [4]: binds
B3: Atg17 (natural protein, S. cerevisiae, UniProt Q06410 1-417, looked up)
chain: MNEADVTKFVNNARKTLTDAQLLCSSANLRIVDIKKKLSSWQLSISKLNFLIVGLRQQGKFLYTILKEGIGTKLIQKQWNQAVLVVLVDEMKYWQYEITSKVQRLDGIVNELSISEKDDTDPSKLGDYISRDNVNLLNDKLKEVPVIERQIENIKLQYENMVRKVNKELIDTKLTDVTQKFQSKFGIDNLMETNVAEQFSRELTDLEKDLAEIMNSLTQHFDKTLLLQDKKIDNDEREELFKVVQGDDKELYNIFKTLHEVIDDVDKTILNLGQFLQAKIKEKTELHSEVSEIINDFNRNLEYLLIFKDISNLIDSFKNSCTQDIQTTKELCEFYDNFEESYGNLVLEAKRRKDVANRMKTILKDCEKQLQNLDAQDQEERQNFIAENGTYLPETIWPGKIDDFSSLYTLNYNVKNP
notes: Atg17, S. cerevisiae BY4741, open reading frame from genomic DNA; expressed from pST39; also called full-length Atg17; Atg17-dimer; source: E. coli Rosetta, purified (Ni-NTA, SEC); not shown: His6, N-terminal, cleaved
stoichiometry N [3]: 2
